Legend:
[1] = Isoelectric point / net charge of TRIM family member; format: physicochemical
[2] = Stability of protein in the cream-based formulation (SDS-PAGE); format: physicochemical; settings: in the cream formulations, stored at room temperature
Protocol: Stability is a major issue in incorporating recombinant proteins as active ingredients into a commercial product. […] Samples were then prepared for analysis and loaded onto an SDS-PAGE gel.
The samples were: Lane 1 contains TRIM Family Member protein that was stored in Phosphate Buffered Saline (PBS) at 4° C. for 13 months. Lane 2-4 are samples of the cream-based formulation containing the TRIM Family Member protein. The arrows indicate the band corresponding to the molecular weight of TRIM Family Member protein in each of the samples in Lanes 2-4. […] This is indicated by the lack of doublet bands in the cream samples. Thus, these formulations for the Emulsifier and Hydrogel are viable systems to maintain the activity of the active ingredient.

TRIM Family Member protein: TRIM-family member protein, MG53, active ingredient of the cream
isoelectric point [1]: 6.08 | net charge ([1]; physiological pH of blood (7.35)): negative | activity of the active ingredient on storage [2]: remains active for over one year

Reference: patent US12357670B2, “Topical cream-based cosmetic and wound healing formulations and methods of use” (Eir Pharmaceuticals, LLC, priority 2018, dated 2025)
